Test results published in PMC5878720.

Target: T1, IL-11Rα (human (endogenous in RA ST fibroblasts and HUVECs)) (UniProt Q14626)
T1 sequence: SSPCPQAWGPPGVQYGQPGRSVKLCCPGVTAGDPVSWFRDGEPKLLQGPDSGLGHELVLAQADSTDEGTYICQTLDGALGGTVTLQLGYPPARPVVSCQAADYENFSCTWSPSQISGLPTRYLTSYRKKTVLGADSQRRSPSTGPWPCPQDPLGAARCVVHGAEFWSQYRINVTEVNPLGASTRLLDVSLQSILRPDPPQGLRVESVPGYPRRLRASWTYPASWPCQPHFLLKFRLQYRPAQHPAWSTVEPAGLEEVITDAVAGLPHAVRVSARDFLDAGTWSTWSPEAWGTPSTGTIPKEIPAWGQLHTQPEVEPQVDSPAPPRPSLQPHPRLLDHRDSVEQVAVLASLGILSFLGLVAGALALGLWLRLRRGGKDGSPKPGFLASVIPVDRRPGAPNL

B1: IL-11 (ligand)
chain: PGPPPGPPRVSPDPRAELDSTVLLTRSLLADTRQLAAQLRDKFPADGDHNLDSLPTLAMSAGALGALQLPGVLTRLRADLLSYLRHVQWLRRAGGSSLKTLEPELGTLQARLDRLLRRLQLLMSRLALPQPPPDPPAPPLAPPSSAWGGIRAAHAILGGLHLTLDWAVRGLLLLKTRL
HUVEC transwell migration, 24h, IL-11 1-100 ng/ml, fold over control: 3 to 15 fold
